In article PMC3034353:
Blank lines part the entries; values can stand above or below the substance they belong to.

Assays:
[1] = target: Bacillus subtilis τ protein (wild type) (B. subtilis) (UniProt P09122); experiment: SEC
[2] = target: Bacillus stearothermophilus DnaB helicase (B. stearothermophilus) (UniProt Q9X4C9); experiment: AUC
[3] = target: Bacillus subtilis τ protein L381A mutant (B. subtilis) (UniProt P09122); experiment: SEC
[4] = target: Bacillus subtilis τ protein L381A mutant (B. subtilis) (UniProt P09122); experiment: AUC
[5] = target: Bacillus subtilis τ protein L381P mutant (B. subtilis) (UniProt P09122); experiment: SEC

stoichiometry N [1]: 4
stoichiometry N (τ pentamer per DnaB hexamer) [2]: 1
Substance: Bacillus subtilis τ protein (wild type) (from UniProt P09122 1-563) (natural protein)

stoichiometry N [3]: 3
stoichiometry N [4]: 4
Substance: Bacillus subtilis τ protein L381A mutant (from UniProt P09122 1-563) (natural protein)

stoichiometry N [5]: 3
Substance: Bacillus subtilis τ protein L381P mutant (from UniProt P09122 1-563) (natural protein)
